Data on 41 sequences can be found in the nanobody polyreactivity screen of Harvey et al. (2022).

The nature of this data set: yeast display, Sf9 membrane polyspecificity reagent, FACS + sequencing; frameworks hold sequencing errors. In short, it runs like this: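 Nanobodies came from a synthetic yeast display library in Saccharomyces cerevisiae BJ5465, induced with galactose for 36–48 hours and stained for 1 hour at 4 °C with 10% biotinylated, detergent-solubilized Sf9 membrane reagent. Cells were enriched on streptavidin microbeads and then FACS-sorted, with low and high (top ~1%) gates set on anti-HA fluorescence for expression and streptavidin fluorescence for reagent binding. Each polyreactivity label reflects the gate a clone came from. Genes were amplified by colony PCR, sequenced by MiSeq 2 × 250 and filtered by CDR length.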
Regarding “QVQLVESGGGLVQAGGSLRLSCAASGFTFVYYAMGWYRQAPGKERELVAAIRSGGSTNYADSVKGRFTISRDNAKNTVYLQMNSLKPEDTAVYYCAAAYWKGRLVRYYYWGQGTQVTVSS”, the “polyreactivity (PSR sort gate)” value was “high polyreactivity”. Under “QVQLVESGGGLVQAGGSLRLSCAASGFTFVYYAMGWYRQAPGKERELVAAISGRGGSTYYADSVKGRFTISRDNAKNTVYLQMNSLKPEDTAVYYCATTYSWYYVPDKTHIYYYWGQGTQVTVSS” stands “low polyreactivity”.

Turning to “QVQLVESGGGLVQAGGSLRLSCAASGFTFVYYAMGWYRQAPGKERELVAAISTRGGSTYYADSVKGRFTISRDNAKNTVYLQMTSLKPEDTAVYYCAARSYPPGLRFDYWGQGTQVTVSS”, the “polyreactivity (PSR sort gate)” value was “high polyreactivity”. Next, “QVQLVESGGGLVQAGGSLRLSCAASGFTFVYYAMGWYRQEPGKERELVAAISRSGGSTYYADSVKGRFTISRDNAKNTVYLQMNSLKPEDTEVYYCAAVTYANYYYDAYYYWGQGTQVTVSS”: “high polyreactivity”; “QVQLVESGGGLVQAGGSLRLSCAASGFTFVYYVMGRYRPAPGKERDLVAAINAGGGSTYYADSVKGRFTISRDNAKNTVYLQMNSLKPEDTSVYYCAARYHTSTRPCRNYWGQGTQVTVSS”: “high polyreactivity”; “QVQLVESGGGLVQAGGSLRLSCAASGFTFWAYTMGWYRQAPGKERELVAAITRSGGRTYYADSVKGRFTISRDNAKNTVYLQLNSLKPEDTAVYYCAAKIWSKDEKHDYWGQGTQVTGSS”: “high polyreactivity”. Under “QVQLVESGGGLVQAGGSLRLSCAASGFTFWEYALGWYRQAPGKERELVAAISRGTSTYYADSVKGRFTIPRDNAKNTVYLQMNSLKPEDTAVYYCAARQDPPLGYDYWGQGTQVTVSS” stands “low polyreactivity”; under “QVQLVESGGGLVQAGGSLRLSCAASGFTFWEYAMGWYRQAPGKERELVAAISSRGTRTYYADSVKGRFTISRDNAKNTVYLQMNSLKPEDTAVYYCATAIPDPDYIHNYWGQGTQVTVSS”, “high polyreactivity”. As to “QVQLVESGGGLVQAGGSLRLSCAASGFTFWKYAMGWYRQAPGKERELVAAISWSGGNTYYADSVKGRFTISRDNAKNTVYLQMNSLKPEDTAVYYCAAVYTPQNQFRYKYYYWGQGTQVTVSS”, the “polyreactivity (PSR sort gate)” value was “high polyreactivity”.

Consider “QVQLVESGGGLVQAGGSLRLSCAASGFTFWLYAMGWYRQAPGKEREFVAAISTSGGSTYADSVKGRFTISRDNAKNTVYLQMNSLKPEDTAVYYCNADPTTTTYRHQYNYWGQGTQVTVSS”, for which the “polyreactivity (PSR sort gate)” value was “low polyreactivity”. Next, “QVQLVESGGGLVQAGGSLRLSCAASGFTFWRYALGWYRQAPGKETEFVASITWSGGSTYYADSVKGRFTISRDNAKNTVYLQMNRLQPEDTAVYYCAAVARTSGIKYYYWGQGTQVTVSS”: “high polyreactivity”; “QVQLVESGGGLVQAGGSLRLSCAASGFTFWRYAMGWSRQATGKERELVAVITWSGTRTYYADSVKGRFTISRDNAKNTVYLQMNSLKPEDTAVYYCAAYITDVAGRAYDYWGQGTQVTVSS”: “high polyreactivity”; “QVQLVESGGGLVQAGGSLRLSCAASGFTFWRYAMGWYRQAPGKERELVAAINWSGGSTNYADSVKGRFTISRDNAKNTVYLQMNSLKPEDTAVYYCAVDPYQNDPSRWYTYPRRGNYWGQGTQVTVSS”: “high polyreactivity”. With “QVQLVESGGGLVQAGGSLRLSCAASGFTFWSYAMGWYRPAPGKERELVAAISRGGSTSYADSVKGRFTISRDNAKNTVYLLMNSLKPEDTAVYYCAALRPYRNDKGDYWGQGTQVTVSS”, the “polyreactivity (PSR sort gate)” value is listed as “high polyreactivity”. Take “QVQLVESGGGLVQAGGSLRLSCAASGFTFWSYAMGWYRQAPGKERELVAGITIDGNTYYADSVKGRFTISRDNAKNTVYLQMNSLKPEDTAVYYCAAVAYYYGYDYWGQGTQVTVSS”: the “polyreactivity (PSR sort gate)” value is on record as “low polyreactivity”.

On to “QVQLVESGGGLVQAGGSLRLSCAASGFTFWSYTMGRYRQPHGKETELVADISWSGGSTYYADSVKGRFTISRDNAKNTVYLQMNSLKPEDTAVLYCNADGPFWARRSSRYYWGQGTQVTVSS”, for which the “polyreactivity (PSR sort gate)” value is “high polyreactivity”. Next, “QVQLVESGGGLVQAGGSLRLSCAASGFTFWTYAMGWYRQAPGKERELVATISKRGGSTYYADSVKGRFTISRDNAMNTVYLQMNSLKPEVTAVYYCNRPSYGKEMDYWGQGTQVTVSS”: “high polyreactivity”. Under “QVQLVESGGGLVQAGGSLRLSCAASGFTFWTYARGWYRQAPGKERELVAAIDSGGSTYYADSVKGRFTISRDNAKNTVYLQMNSLKPEDTAVYYCNAGPSVTSGYDYDYWGQGTQVTVSS” stands “low polyreactivity”. With “QVQLVESGGGLVQAGGSLRLSCAASGFTFWWYAMGWYRQAPGKERELVASIDTRGGTYYADSVKGRFTISRDNAKNTVYLQMNRLKPEDTAVYYCNADGAYGNYRGGYWGQGTQVTVSS”, the “polyreactivity (PSR sort gate)” value was “high polyreactivity”. Under “QVQLVESGGGLVQAGGSLRLSCAASGFTFWYYAMGWYRQAPGKERELVAAITSGGTTYYADSVKGRFTISRDNAKNTVYLQMNSLKPEDTAVYYCAALLSIYRSQYDYWGQGTQVTVSS” stands “high polyreactivity”; under “QVQLVESGGGLVQAGGSLRLSCAASGFTFWYYAMGWYRQAPGKERELVATISRGGGSTYYADSVKGRFTISRDNAKNTVYLQMNSLKPEDTEVYYCNAVRVHAYSTGEYGYWGQGTQVTVSS”, “high polyreactivity”; under “QVQLVESGGGLVQAGGSLRLSCAASGFTFWYYAMGWYRQAPGKERELVATITSGDSTKYADSVKGSFTISRDNAKNTVFLQMNSLNPEDNAVYYCAAEKVLPFIGYDYWGQGTQVTVSS”, “low polyreactivity”.

In the case of “QVQLVESGGGLVQAGGSLRLSCAASGFTFYANTMGWYRQAPGKERELVAAISKSGGRTYYADSVKGRFTISRDNAKNTVYLQMNSLKPEDTAVYYCAASSGYKRNYWGQGTQVTVSS”, the “polyreactivity (PSR sort gate)” value was “high polyreactivity”.

As to “QVQLVESGGGLVQAGGSLRLSCAASGFTFYAYAMGWYRQAPGKERELVAAISGRGTSTYYADSVKGRFTISRDNAKNTVYLQMNSLKPEDTAFYYCIKYPLRLYGYDYWGQGTQVTVSS”, the “polyreactivity (PSR sort gate)” value was “high polyreactivity”.

Take “QVQLVESGGGLVQAGGSLRLSCAASGFTFYDYAMGWYRQAPGKQREFVAAITWSGSSTYYADSVKGRFTISRDNAMNTVYLQMKSMKPEDTEVYYCAVGPFRRRGHYPTYYRYGYWGQGTEVTVSS”: the “polyreactivity (PSR sort gate)” value is given as “high polyreactivity”. Under “QVQLVESGGGLVQAGGSLRLSCAASGFTFYDYDMGWSRQAPGKERELVATITWSGGRTYYADSVKGRFTISRDNAKNTVYLQMNSLKPEDTAVYYCAADEPDRDYGYWGQGTQVTVSS” stands “low polyreactivity”; under “QVQLVESGGGLVQAGGSLRLSCAASGFTFYGYAMGWYRPAPGKERELVAAISWSGGSTFYADSVKGRFTISRDNAKNTVYLQMNSQKAEDTAVDYCNAKVYPWGYYTSWRTVSPYDYWGQGTQVSVSS”, “high polyreactivity”; under “QVQLVESGGGLVQAGGSLRLSCAASGFTFYGYAMGWYRQAPGKERELVAAISSSGGRTYYADSVKGRFTISRDNEKNTVYLQMNSLKPEDTAVYYCAAEYRSYRDGYWGLGTQVTVSS”, “high polyreactivity”. Next, “QVQLVESGGGLVQAGGSLRLSCAASGFTFYGYGMGWYRQAPGKERELVAVITSGGSTKYADSVKGRFTISRDNAKNTVDLQMNSLKPEDTAVYYCNVVGGRYLYSAYDYWGQGTQVTVSS”: “low polyreactivity”; “QVQLVESGGGLVQAGGSLRLSCAASGFTFYGYTMGWYRQAPGKERELVAAISRSGGRTYYADSVKGRFTISRDNAKNTVYLQMNSLKPEDTAVYYCAGDSRTNGYDYWGQGTQVTVSS”: “high polyreactivity”.

Regarding “QVQLVESGGGLVQAGGSLRLSCAASGFTFYGYVMGWYRQAPGKERELVASIRSRGSRTSYADSVKGRFTISRDNAKNTVYLQMNSLKPEDTAVYYCAASRGRLPYSSTSNGDYDYWGQGTQVTVSS”, the “polyreactivity (PSR sort gate)” value is given as “high polyreactivity”.

In the case of “QVQLVESGGGLVQAGGSLRLSCAASGFTFYHYAMGWYRQAPGKERELVAAISRSAGSTYYADSVKGRFTISRDNAKNTVYLQMNSLKPEDTAVYYCAKVLRAKNSFDYWGQGTHVTVSS”, the “polyreactivity (PSR sort gate)” value is listed as “high polyreactivity”. Next, “QVQLVESGGGLVQAGGSLRLSCAASGFTFYIYAMGWYRQAPGKERELVAAITTTTGSTYYADSVKGRFTISRDNAKNTVYLQMNSLKPEDTAVYYCAAEGHYYYFGYYYWGQGTQVTVSS”: “low polyreactivity”; “QVQLVESGGGLVQAGGSLRLSCAASGFTFYKNAMGWYRQAPGKERELVATISSGGSTYYADSVKGRFTISRYNAKNTVYLQLNSLKPEDTAVYYCAARVHHGYYSISYYYWGQGTQVTVSS”: “high polyreactivity”; “QVQLVESGGGLVQAGGSLRLSCAASGFTFYLNAMGWYRQAPGKERELVAAISYSDGSTYYADSVKGRFTISRDNAKNTVYFQMNSLKPEDSAVYYCDADTTDPGGAFQLKDYWGQGTQVTVSS”: “high polyreactivity”. Next, “QVQLVESGGGLVQAGGSLRLSCAASGFTFYLYAMGWYRQAPGKERELVAAISSGSTTYYADSVKGRFTISRDNAKNTVYLQMNSLKPEDTAVYYCNAYYVNYVSNYEYWGQGTQVTVSS”: “high polyreactivity”. Next, “QVQLVESGGGLVQAGGSLRLSCAASGFTFYLYTMGWYRQAPGKERELVATITSDGGTNYADSVKGRFTISRDNAKNTVYLQMNSLKPEDTAVYYCNAASRRGSRKQAKYDYWGQGTQVTVSS”: “low polyreactivity”; “QVQLVESGGGLVQAGGSLRLSCAASGFTFYNVMGWYRQAPGKERELVATISTSVDSTYYADSVKGRFTISRDNAKNTVYLQMNSLKPEDTAVYYCNADISSNYYDYFGYDYWGQGTQVTVSS”: “low polyreactivity”. For the sequence “QVQLVESGGGLVQAGGSLRLSCAASGFTFYNYAMGWYRPAPGKERELVAAITKSGSRTYYADSVKGRFTISRDNAKNTVYLQMNSLKPEDTAVYYCARDYTVRGYDYWGQGTQVTVSS”, the “polyreactivity (PSR sort gate)” value is given as “high polyreactivity”.

Consider “QVQLVESGGGLVQAGGSLRLSCAASGFTFYNYAMGWYRQAPGKERELVAAISTSGGSTYYADSVKGRFTISRDNAKNTVYLQMNSLKPEDTAVYYCAAQATAYSYAYYYWGQGTQVTVSS”, for which the “polyreactivity (PSR sort gate)” value is on record as “low polyreactivity”. Next, “QVQLVESGGGLVQAGGSLRLSCAASGFTFYPYAMGCYRQAPGKERELVDAISNGASTHYADSVKGRFTISRDNAKNTVYLQMNSLKPEDTAVYYCNAYTRYPFYFVTSKYDYWGQGTQVTVSS”: “low polyreactivity”.
